B1: Regulatory protein NPR1 (Arabidopsis thaliana (Mouse-ear cress)), P93002 (parent)
chain: MDTTIDGFADSYEISSTSFVATDNTDSSIVYLAAEQVLTGPDVSALQLLSNSFESVFDSPDDFYSDAKLVLSDGREVSFHRCVLSARSSFFKSALAAAKKEKDSNNTAAVKLELKEIAKDYEVGFDSVVTVLAYVYSSRVRPPPKGVSECADENCCHVACRPAVDFMLEVLYLAFIFKIPELITLYQRHLLDVVDKVVIEDTLVILKLANICGKACMKLLDRCKEIIVKSNVDMVSLEKSLPEELVKEIIDRRKELGLEVPKVKKHVSNVHKALDSDDIELVKLLLKEDHTNLDDACALHFAVAYCNVKTATDLLKLDLADVNHRNPRGYTVLHVAAMRKEPQLILSLLEKGASASEATLEGRTALMIAKQATMAVECNNIPEQCKHSLKGRLCVEILEQEDKREQIPRDVPPSFAVAADELKMTLLDLENRVALAQRLFPTEAQAAMEIAEMKGTCEFIVTSLEPDRLTGTKRTSPGVKIAPFRILEEHQSRLKALSKTVELGKRFFPRCSAVLDQIMNCEDLTQLACGEDDTAEKRLQKKQRYMEIQETLKKAFSEDNLELGNSSLTDSTSSTSKSTGGKRSNRKLSHRRR
partner: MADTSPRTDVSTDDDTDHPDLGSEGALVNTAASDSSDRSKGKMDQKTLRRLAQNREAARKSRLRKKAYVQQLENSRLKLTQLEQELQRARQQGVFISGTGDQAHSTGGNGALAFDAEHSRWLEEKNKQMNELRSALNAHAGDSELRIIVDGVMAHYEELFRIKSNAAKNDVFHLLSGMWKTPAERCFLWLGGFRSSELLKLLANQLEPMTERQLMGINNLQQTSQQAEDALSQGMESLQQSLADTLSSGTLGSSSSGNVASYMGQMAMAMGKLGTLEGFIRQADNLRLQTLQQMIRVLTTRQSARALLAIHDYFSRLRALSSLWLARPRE

Variants of: B1
Conditions: with tga2_arath TGA2, P43273

Variant	effect of a mutation on the interaction
MDTTIDGFADSYEISSTSFVATDNTDSSIVYLAAEQVLTGPDVSALQLLSNSFESVFDSPDDFYSDAKLVLSDGREVSFHRCVLSARSSFFKSALAAAKKEKDSNNTAAVKLELKEIAKDYEVGFDSVVTVLAYVYSSRVRPPPKGVSEYADENCCHVACRPAVDFMLEVLYLAFIFKIPELITLYQRHLLDVVDKVVIEDTLVILKLANICGKACMKLLDRCKEIIVKSNVDMVSLEKSLPEELVKEIIDRRKELGLEVPKVKKHVSNVHKALDSDDIELVKLLLKEDHTNLDDACALHFAVAYCNVKTATDLLKLDLADVNHRNPRGYTVLHVAAMRKEPQLILSLLEKGASASEATLEGRTALMIAKQATMAVECNNIPEQCKHSLKGRLCVEILEQEDKREQIPRDVPPSFAVAADELKMTLLDLENRVALAQRLFPTEAQAAMEIAEMKGTCEFIVTSLEPDRLTGTKRTSPGVKIAPFRILEEHQSRLKALSKTVELGKRFFPRCSAVLDQIMNCEDLTQLACGEDDTAEKRLQKKQRYMEIQETLKKAFSEDNLELGNSSLTDSTSSTSKSTGGKRSNRKLSHRRR [C150Y]	disrupting interaction
